This note sets out measurements from patent publication US20090317414A1, “CANCER VACCINE COMPRISING A MUCIN 1 (MUC1) T CELL EPITOPE-DERIVED PEPTIDE” (4G VACCINES PTY LTD, priority 2006, published 2009).

Assay [1] has as its target T1, soluble H-2K^b (soluble extracellular domains; heavy chain residues 1-274 with C-terminal His-tag and β2-microglobulin residues 1-99) (mouse).
T1 chain: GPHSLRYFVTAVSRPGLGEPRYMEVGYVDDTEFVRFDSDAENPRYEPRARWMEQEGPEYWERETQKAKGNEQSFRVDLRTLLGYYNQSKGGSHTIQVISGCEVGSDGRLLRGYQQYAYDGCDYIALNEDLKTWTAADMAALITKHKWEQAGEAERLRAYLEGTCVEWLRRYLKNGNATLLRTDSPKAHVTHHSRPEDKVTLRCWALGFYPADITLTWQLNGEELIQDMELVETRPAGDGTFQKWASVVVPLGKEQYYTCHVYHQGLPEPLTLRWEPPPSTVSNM
Nature of the assay: inhibition assay with soluble H-2K^b, 23° C.

The target in assay [2] is T1, soluble H-2K^b (soluble extracellular …). Kind of assay: inhibition assay with soluble H-2K^b, 37° C.
For assay [3] the target is unchanged. Nature of the assay: inhibition assay with soluble H-2K^b, 4° C.

RGYVYQGL (modifications not checked) [VSV8 (RGYVYQGL), Vesicular stomatitis virus NP52-59]: the Kd stood at 27 nM in assay [1], 163 nM in assay [2] and 34 nM in assay [3].

By Kd is commonly meant the free concentration of one partner at which half of the binding sites on the other are occupied at equilibrium, for simple one-to-one binding. Low values mean a tighter complex, high ones a looser complex.
